Laboratory results published in the DeepSol protein solubility set.

Experiment: soluble on expression in E. coli; label from the status in PepcDB or PDB records

Sequence	soluble on expression in E. coli
MAQITTTDANEFSSSAEFIPMRGFSNCHLQTMLPRLFRRQVKFTPYWQRLELPDGDFVDLAWSENPAQAQHKPRLVVFHGLEGSLNSPYAHGLVEAAQKRGWLGVVMHFRGCSGEPNRMHRIYHSGETEDASWFLRWLQREFGHAPTAAVGYSLGGNMLACLLAKEGNDLPVDAAVIVSAPFMLEACSYHMEKGFSRVYQRYLLNLLKANAARKLAAYPGTLPINLAQLKSVRRIREFDDLITARIHGYADAIDYYRQCSAMPMLNRIAKPTLIIHAKDDPFMDHQVIPKPESLPPQVEYQLTEHGGHVGFIGGTLLHPQMWLESRIPDWLTTYLEAKSCLEHHHHHH	not soluble
MAQKKPKRNLSALKRHRQSLKRRLRNKAKKSAIKTLSKKAIQLAQEGKAEEALKIMRKAESLIDKAAKGSTLHKNAAARRKSRLMRKVRQLLEAAGAPLIGGGLSA	soluble
MAQKTFTVTADSGIHARPATTLVQAASKFDSDINLEFNGKTVNLKSIMGVMSLGIQKGATITISAEGSDEADALAALEDTMSKEGLGE	soluble
MAQMYFYYSAMNAGKSTTLLQSSFNYQERGMTPVIFTAALDDRYGVGKVSSRIGLQSDAHLFRPDTNLYQEIAALHEVEKRHCIL	not soluble
MAQSKHGLTKEMTMKYRMEGCVDGHKFVITGEGIGYPFKGKQAINLCVVEGGPLPFAEDILSAAFNYGNRVFTEYPQDIVDYFKNSCPAGYTWDRSFLFEDGAVCICNADITVSVEENCMYHESKFYGVNFPADGPVMKKMTDNWEPSCEKIIPVPKQGILKGDVSMYLLLKDGGRLRCQFDTVYKAKSVPRKMPDWHFIQHKLTREDRSDAKNQKWHLTEHAIASGSALP	soluble
MARKHIYIAYTGGTIGMKKSDHGYVPVAGFMEKQLASMPEFHRPEMPLFTIHEYDPLMDSSDMTPADWQLIADDIAANYDKYDGFVILHGTDTMAYTASALSFMFENLGKPVIVTGSQIPLADLRSDGQANLLNALHVAANYPINEVTLFFNNRLMRGNRSRKSHADGFSAFSSPNLPPLLEAGINIELSTNVKVDEKPSGEFKVNPITPQPIGVITMYPGISHEVIRNTLLQPVNAMILLTFGVGNAPQNPELLAQLKAASERGVIVVNLTQCLAGKVNMGGYATGCALADAGVISGYDMTPEAALAKLHYLLSQNLSYEEVKAKMQQVLRGEMTL	soluble
MARKNLIGISESPLAPEDGERPAVGRPIAGLAPAQRSTGLVGGITRSLSNITQKVERAEELERQLADGHAIVELDPELIDSSFIIDRLGVAPDVQAMLVQQIRDHGQQVPILVRPHPAESGRYQVAYGHRRLAALREIGIKVKAVIRNLNDEQLVISQGQENNARTDLSFIERALFATRLEDRGFSRDTIMSALGVDKAALSKMIAVVRRLPLDIIEAIGAAPGFGRRRWMELADLIDRDDRRPKALHFIETAAFKALESDQRFEKLFALLSLARKPSKAETWIAPDRSRPVRIRETDAETTLAFSKKAAPGFAEFVRQRLEALYLEYQRETGD	not soluble
MARPQSKKKQTQIVRRSRPRGRLVPPGRLIAGRDFPEFLQQAVLLSGSLRQAARKLRVSYSTLRGWLGRRCEEPPEAERDLLAEHAAAIRAELDAASEHLATVRGQLDVLEHGE	not soluble
MARQLRAEQTRATIIGAAADLFDRRGYESTTLSEIVAHAGVTKGALYFHFAAKEDLAHAILEIQSRTSRRLAKDLDGRGYSSLEALMRLTFGMARLCVQGPVLRAGLRLATAGVPVRPPLPHPFTEWREIATSRLLDAVRQSDVHQDIDVDSVAHTLVCSVVGTRVVGGTLEPAGREPRRLAEMWYILIRGMVPVTRRARYVTLAARLEQETGTA	soluble
MARQSSSLKSFIYKDECYFYSKKCIKTLRLRLNEKGEFVLSIPYFCTFKSVYEFLDKSSSWMNEAKKRFEKKVLKDDELIFLAKKYKIIFDENTKKTYFDKDKIICQNKAKLDLFLRQNAKKIFTFYLKKWSQKTGLFYTHLSIKNMKTRWGSCNHNKAYVNLNLKLIQKSLRAIEYVILHEISHLKFPNHSKEFYTFIEHFMSDFRQREKEFLSLEHHHHHH	soluble
MARRQTSSNGAGETRENLLRLAARIFSAQGYSGTTMRSIAQQAGIETASIYYHFPSKEDLVDEVMEIGATAIIQHMTERIEALGDGATAEERFRAAVLGQMAGMVKHGEYTLASSSLIEQLPEKVRERQSKRRESYQKLWAGLLEDLRAEGRLRSDVDLHLARMFILGSVQSIRYWFNPRKGSLEKVAAQLCDLFFEGVGQRG	soluble
MASMTGGQQMGRGSDYFEPQQQQQQQQQQPQGASTPKVFVGYSIYKGKAALTVEPRSPEFSPLDSGAFKLSREGMVMLQFAPAAGVRQYDWSRKQVFSLSVTEIGSIISLGTKDSCEFFHDPNKGRSDEGRVRKVLKVEPLPDGSGHFFNLSVQNKLINLDENIYIPVTKAEFAVLVSAFNFVMPYLLGWHTAVNSFKPEDASRSNNANPRSGAELEWNLEHHHHHH	soluble
MASNSSSCPTPGGGHLNGYPVPPYAFFFPPMLGGLSPPGALTTLQHQLPVSGYSTPSPATIETQSSSSEEIVPSPPSPPPLPRIYKPCFVCQDKSSGYHYGVSACEGCKGFFRRSIQKNMVYTCHRDKNCIINKVTRNRCQYCRLQKCFEVGMSKESVRNDRNKKKKEVPKPECSESYTLTPEVGELIEKVRKAHQETFPALCQLGKYTTNNSSEQRVSLDIDLWDKFSELSTKCIIKTVEFAKQLPGFTTLTIADQITLLKAACLDILILRICTRYTPEQDTMTFSDGLTLNRTQMHNAGFGPLTDLVFAFANQLLPLEMDDAETGLLSAICLICGDRQDLEQPDRVDMLQEPLLEALKVYVRKRRPSRPHMFPKMLMKITDLRSISAKGAERVITLKMEIPGSMPPLIQEMLENSEGLDTLSGQPGGGGRDGGGLAPPPGSCSPSLSPSSNRSSPATHSP	soluble
MASPELAEKLKKRLDGTDQEPETNPHQAPPPAPVIPQKIVENPYIPSVDTSIDDLIFKALEKKEENNNNNNNNNSNSTTTTPLEIKTERNQQHEHTTIDPRSPPPKRSILELLEQERLENELQQQSAPVPKTPVMVITKGAFPRSASPRRQQFVRENEDGNELEKRLAAQRMKKYTEEMESLVQKQVDVLDQIMSSPPPPPTSPPQLPPTPPARITSVRSDESIEEEERRRKESEETASFEELEAEIMRISRSPVPPPVLSIPPPPPPNIPLPTIPQEVQSPPSPRPTSVPPPIPSPGPSEDVNMDELIESFSDSVIFNNSMSPPPPLPPLRESSLETLEVTPEDPVTESKVEASPTPLPKATESLNESSIKALEGLEVKALEAQEASDDRPSAPTPIRDSSLPPPPPPKPETPLAIRRAGPIPTPQLLEMIHQEDCSIRPSSPTSVSHGSRPQSPAVPKKPSVTVSPLGLLCDPNLSIEKPEEMKTEDTKPVETAPAPVDEAELNDALDRRNKINEATCLTKIFPSLARMFR	not soluble
MASPHQEPKPGDLIEIFRLGYEHWALYIGDGYVIHLAPPSEYPGAGSSSVFSVLSNSAEVKRERLEDVVGGCCYRVNNSLDHEYQPRPVEVIISSAKEMVGQKMKYSIVSRNCEHFVTQLRYGKSRCKQVEKAKVEVGVATALGILVVAGCSFAIRRYQKKATALEHHHHHH	not soluble
MASPSASADDVKLTADGKICLDDPAEFLKRKPKKSILKMKQDSSLEGKDGRAHFDEMNILATYHPTDKDYGSMKIDEPKTPYHHSDGESECDEGVLGVPTTRPRRVSLGNAIDPEKVAEGLAHPESGKSLSSAEDSEDEADLTEEQRAHRRDFEKKRRAHYNEGAALKHHPELEDDEEEATAAAAGAGGNMEH	not soluble
MASSKIVPLYQSMLNDLIRQIESGELVENAKLPSEQKLGEKYDVSRITVRRALAELENKDYIYKKQGQGSFVKNKEDIDLGIHYLDVRKAIENMNAVPEIRLEAFKLIVDGSESDVRKVMEINSDVYLYYLRYMVYADHRPVFHEQVYLPFERFPRIFNSEIVNNDLMPFLVKKYGLKASFFSHTQPALITKSNRKEFDLNVGDPMIYMQTRGIEEKEIIYYRKAAVVGNLIMYIVG	not soluble
MASSSLIMGNNMHVKYLAGIVGAALLMAGCSSSNELSAAGQSVRIVDEQPGAECQLIGTATGKQSNWLSGQHGEEGGSMRGAANDLRNQAAAMGGNVIYGISSPSQGMLSSFVPTDSQIIGQVYKCPNLEHHHHHH	not soluble
